This note sets out measurements from US20240383982A1 (Genmab, published 2024).

One test has as its target T1, B7H3.
T1 construct: also called human B7H3
T1 full-length protein on cells: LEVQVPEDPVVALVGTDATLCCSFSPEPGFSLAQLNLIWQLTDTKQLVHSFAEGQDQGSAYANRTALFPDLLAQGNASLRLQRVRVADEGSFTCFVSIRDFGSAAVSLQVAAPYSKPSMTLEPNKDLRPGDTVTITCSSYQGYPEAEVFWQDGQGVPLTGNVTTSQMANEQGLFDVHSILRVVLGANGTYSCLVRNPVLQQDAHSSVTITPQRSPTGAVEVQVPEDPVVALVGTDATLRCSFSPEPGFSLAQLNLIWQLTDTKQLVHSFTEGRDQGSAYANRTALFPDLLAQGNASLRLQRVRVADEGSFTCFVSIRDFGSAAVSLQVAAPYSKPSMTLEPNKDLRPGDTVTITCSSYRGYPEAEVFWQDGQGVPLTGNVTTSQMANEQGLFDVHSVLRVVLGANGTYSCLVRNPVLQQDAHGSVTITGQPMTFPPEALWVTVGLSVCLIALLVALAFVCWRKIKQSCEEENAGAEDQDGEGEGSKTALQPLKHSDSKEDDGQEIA
In words: flow cytometry, transiently transfected HEK cells, MFI as % of IgG1-B7H3-BRCA84D. On the procedure: (§1) Expression constructs were prepared encoding human B7H4, human B7H3 (Uniprot accession no. Q5ZPR3-1; SEQ ID NO: 9), or a chimeric molecule containing the IgV domain of B7H3 and the IgC domain of B7H4 (B7H3-IgV/B7H4-IgC; SEQ ID NO: 11), or a chimeric molecule containing the IgV domain of B7H4 and the IgC domain of B7H3 (B7H4-IgV/B7H3-IgC; SEQ ID NO: 10). HEK cells were transiently transfected to express these constructs.
(§2) Cells (3×10⁴ cell/well) were incubated in polystyrene 96-well round-bottom plates (Greiner bio-one, cat. no. 650101) with serial dilutions of antibodies (range 0.0046 to 10 μg/mL in 3-fold dilution steps) in 50 μL PBS/0.1% BSA/0.02% azide (FACS buffer) at 4° C. for 30 min. After washing twice in FACS buffer, cells were incubated with secondary antibody at 4° C. for 30 min. As a secondary antibody, R-Phycoerythrin (PE)-conjugated goat-anti-human IgG F(ab′)₂ (1:500 in staining buffer; Jackson ImmunoResearch Laboratories, Inc., West Grove, PA, cat. no. 109-116-098) was used. Next, cells were washed twice in FACS buffer, re-suspended in 20 μL FACS buffer and analyzed on an iQue Screener (Intellicyt Corporation, USA).
Background: In flow cytometry, cells or beads pass a laser one at a time.

A further test concerns the target T2, B7H3-IgV/B7H4-IgC.
T2 construct: also called chimeric molecule with the IgV domain of B7H3 and the IgC domain of B7H4
T2 full-length chimeric protein on cells: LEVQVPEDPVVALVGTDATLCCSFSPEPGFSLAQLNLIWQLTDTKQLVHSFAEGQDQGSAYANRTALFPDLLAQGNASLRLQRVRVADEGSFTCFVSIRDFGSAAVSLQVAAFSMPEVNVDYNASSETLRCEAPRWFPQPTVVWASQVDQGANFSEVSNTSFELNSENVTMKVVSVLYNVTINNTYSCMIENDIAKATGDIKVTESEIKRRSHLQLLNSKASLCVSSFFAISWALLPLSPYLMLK
In words: flow cytometry, transiently transfected HEK cells, antibody at 10 µg/mL, MFI as % of the control antibody of the panel. On the procedure: as §1, §2

The target in test [1] is T3, mouse B7H4 ECD-His (R&D Systems, cat. no. 2154-B7-050) (mouse, UniProt Q7TSP5 29-256).
T3 construct: Bought ECD-His protein (26.6 kDa); also called mouse B7H4 extracellular domain
T3 sequence: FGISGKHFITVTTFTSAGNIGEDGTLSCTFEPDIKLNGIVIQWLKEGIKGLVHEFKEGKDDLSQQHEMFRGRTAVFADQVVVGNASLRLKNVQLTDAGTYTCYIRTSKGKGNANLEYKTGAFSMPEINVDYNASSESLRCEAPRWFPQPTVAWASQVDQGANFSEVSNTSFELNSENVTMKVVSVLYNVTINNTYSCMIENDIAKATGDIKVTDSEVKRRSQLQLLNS
Briefly: BLI (Octet HTX); antibody on anti-human IgG Fc capture sensor, mouse B7H4 ECD-His in solution; 1st experiment. On the procedure: (§3) Target binding affinity of B7H4 antibodies was determined by label-free biolayer interferometry (BLI) on an Octet HTX instrument (FortéBio). Experiments were carried out while shaking at 1,000 RPM at 30° C. […] Anti-Human IgG Fc Capture (AHC) biosensors (FortéBio, cat. no. 18-5060) were pre-conditioned by exposure to 10 mM glycine (Sigma-Aldrich, cat. no. 15527) buffer pH 1.7 for 5 s, followed by neutralization in Sample Diluent (FortéBio, cat. no. 18-1048) for 5 s; both steps were repeated 2 times. Next, AHC sensors were loaded with antibody (1 μg/mL in Sample diluent) for 600 s. […] The theoretical molecular mass of human B7H4 and mouse B7H4 (as ECD-His tagged molecules) based on their amino acid sequences (26.8 kDa and 26.6 kDa respectively) were used for calculations. For each antibody a reference sensor was used, which was incubated with Sample Diluent instead of antigen. AHC sensors were regenerated by exposure to 10 mM glycine buffer pH 1.7 for 5 s, followed by neutralization in Sample Diluent for 5 s; both steps were repeated twice. Subsequently sensors were loaded again with antibody for the next cycle of kinetics measurements.
(§4) Data were acquired using Data Acquisition Software v9.0.0.49d (FortéBio) and analyzed with Data Analysis Software v9.0.0.12 (FortéBio). Data traces were corrected per antibody by subtraction of the reference sensor. The Y-axis was aligned to the last 10 s of the baseline, Interstep Correction alignment to dissociation and Savitzky-Golay filtering were applied. Data traces with a response<0.05 nm were excluded from analysis. The data was fitted with the 1:1 Global Full fit model using a window of interest for the association and dissociation times set at 300 s and 200 s respectively.

Test [2] deals with T4, rabbit (Oryctolagus cuniculus) B7H4, full length, on HEK-293F cells (rabbit, UniProt Q7Z7D3 25-282 (human entry)).
T4 construct: Uniprot G1TQE8; also called rabbit B7H4
T4 chain: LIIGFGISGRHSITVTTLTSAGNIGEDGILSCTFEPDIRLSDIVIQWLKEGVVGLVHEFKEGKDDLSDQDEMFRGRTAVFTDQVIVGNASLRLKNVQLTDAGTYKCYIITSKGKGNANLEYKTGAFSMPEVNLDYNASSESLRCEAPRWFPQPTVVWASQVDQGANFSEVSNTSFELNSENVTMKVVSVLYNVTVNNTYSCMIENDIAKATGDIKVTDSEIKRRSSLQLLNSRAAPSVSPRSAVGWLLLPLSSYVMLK
Briefly: flow cytometry, transiently transfected HEK-293F cells.

Test [3] has as its target T3, mouse B7H4 ECD-His (R&D Systems, cat. …). Briefly: BLI (Octet HTX); antibody on anti-human IgG Fc capture sensor, mouse B7H4 ECD-His in solution; 2nd experiment. The protocol: as §3, §4
On the technique in general: In BLI a coated tip is dipped into the sample, and binding shifts an interference pattern.

The target of test [4] is T5, rat (Rattus norvegicus) B7H4, full length, on HEK-293F cells (rat, UniProt Q501W4 25-257).
T5 construct: Uniprot Q501W4; also called rat B7H4
T5 sequence: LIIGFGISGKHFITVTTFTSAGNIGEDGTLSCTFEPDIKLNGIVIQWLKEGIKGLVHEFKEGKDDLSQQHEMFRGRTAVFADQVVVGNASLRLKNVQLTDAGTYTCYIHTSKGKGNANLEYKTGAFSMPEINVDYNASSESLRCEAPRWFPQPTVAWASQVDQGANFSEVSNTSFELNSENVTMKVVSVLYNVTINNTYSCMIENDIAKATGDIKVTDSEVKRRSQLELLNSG
Briefly: flow cytometry, HEK-293F cells transfected with rat B7H4 [panel Rat B7H4]. On the procedure: (§5) Cells (3×10⁴ cells/well) were incubated in polystyrene 96-well round-bottom plates (Greiner bio-one, cat. no. 650180) with serial dilutions of antibodies (ranging from 0.000458 to 30 μg/mL in 4-fold dilution steps) in 100 μL PBS/0.1% BSA/0.02% azide (staining buffer) at 4° C. for 30 min. Experiments were performed in technical duplicate. After washing twice in staining buffer, cells were incubated in 50 μL secondary antibody at 4° C. for 30 min. As a secondary antibody, R-Phycoerythrin (PE)-conjugated goat-anti-human IgG F(ab′)₂ (1:500 in FACS buffer; Jackson ImmunoResearch Laboratories, Inc., West Grove, PA, cat. no. 109-116-098), was used. Cells were washed twice in staining buffer, re-suspended in 30 μL FACS buffer containing Topro-3 (1:10,000 dilution) and analyzed on an iQue Screener (Intellicyt Corporation, USA). Binding curves were analyzed using non-linear regression (sigmoidal dose-response with variable slope) using GraphPad Prism V7.02 software (GraphPad Software, San Diego, CA, USA).

Test [5] concerns the target T6, pig (Sus scrofa) B7H4, full length, on HEK-293F cells (pig, UniProt Q7Z7D3 26-282 (human entry)).
T6 construct: Uniprot F1SAY4; also called pig B7H4
T6 chain: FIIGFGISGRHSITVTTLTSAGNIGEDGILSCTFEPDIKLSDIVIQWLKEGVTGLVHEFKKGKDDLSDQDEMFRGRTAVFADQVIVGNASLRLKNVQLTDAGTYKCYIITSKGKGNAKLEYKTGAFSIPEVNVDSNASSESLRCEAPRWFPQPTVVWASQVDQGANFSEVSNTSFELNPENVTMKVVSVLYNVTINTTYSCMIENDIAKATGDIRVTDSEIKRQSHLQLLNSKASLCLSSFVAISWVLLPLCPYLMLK
In words: flow cytometry, HEK-293F cells transfected with pig B7H4 [panel Pig B7H4]. The protocol: as §5

B1: bsIgG1-huCD3-FEALxB7H4-C3-FEAR (bispecific antibody)
heavy 1: not shown
light 1: not shown
heavy 2: EVQLVQSGAEVKKPGASVKVSCKASGYTFTNFWIHWVRQAPGQGLEWIGEIDPSDSYTNYNQKFKGRVTITRDTSTSTAYLELSSLRSEDTAVYYCAREITTVDYWGQGTLVTVSSASTKGPSVFPLAPSSKSTSGGTAALGCLVKDYFPEPVTVSWNSGALTSGVHTFPAVLQSSGLYSLSSVVTVPSSSLGTQTYICNVNHKPSNTKVDKRVEPKSCDKTHTCPPCPAPEFEGGPSVFLFPPKPKDTLMISRTPEVTCVVVAVSHEDPEVKFNWYVDGVEVHNAKTKPREEQYNSTYRVVSVLTVLHQDWLNGKEYKCKVSNKALPAPIEKTISKAKGQPREPQVYTLPPSREEMTKNQVSLTCLVKGFYPSDIAVEWESNGQPENNYKTTPPVLDSDGSFFLYSRLTVDKSRWQQGNVFSCSVMHEALHNHYTQKSLSLSPGK
light 2: DIQMTQSPSSLSASVGDRVTITCSATSSISYMHWYQQKPGKAPKGWIYDTSKLAHGVPSRFSGSGSGTDFTLTISSLQPEDFATYYCHQRRSYPFTFGQGTKVEIKRTVAAPSVFIFPPSDEQLKSGTASVVCLLNNFYPREAKVQWKVDNALQSGNSQESVTEQDSKDSTYSLSSTLTLSKADYEKHKVYACEVTHQGLSSPVTKSFNRGEC
notes: also called bslgG1-huCD3-FEALxB7H4-C3-FEAR
B1: the binding result is “no binding (tested: 10 µg/mL)” with B7H3 and “binds” with B7H3-IgV/B7H4-IgC.

B2: IgG1-B7H4-C2-FEAR (antibody, V domains shown)
VH: EVQLVQSGAEVKKPGASVKVSCKASGYTFTSYWIGWVRQAPGQGLEWIGDIYPGGGYTNYNEKFKGRVTITRDTSTSTAYLELSSLRSEDTAVYYCARLDGSSYRGAMDSWGQGTLVTVSS
VL: DIQMTQSPSSLSASVGDRVTITCKASQGFNKYVAWYQQKPGKAPKLLIYYTSTLQPGVPSRFSGSGSGRDYTLTISSLQPEDFATYYCLQYGNLLYAFGQGTKVEIKR
notes: Full length IgG1 FEAR, kappa; variable domains from WO2014159835
For B2, the Kd was found to be 24 nM in test [1] and 2.1 nM in test [3]. For the same molecule, the koff was 0.00077 s⁻¹ in test [1] and 0.00013 s⁻¹ in test [3]. Also, the kon amounted to 33000 M⁻¹ s⁻¹ in test [1] and 63000 M⁻¹ s⁻¹ in test [3]. For the same molecule, the binding result in test [2], in test [4] and in test [5] was “binds” each time.

The term Kd denotes the concentration at which binding is half-saturated. High values mean weaker binding, low ones tighter binding. Broadly, the koff is the first-order rate constant of dissociation. A high value points to a short-lived complex. As a reminder, the kon is the second-order rate constant of association. The low end stands for slow association, the high end for fast association.
